{"source": "patent US20240254255A1", "key": {"[1]": {"molecular_target": "human HER2 (ErbB2) expressed on the surface of cell lines and primary cells (human) (UniProt P04626)", "assay": "flow cytometry, JIMT1 cells, [Ab] 10 ug/ml"}, "[2]": {"molecular_target": "human HER2 (ErbB2) expressed on the surface of cell lines and primary cells (human) (UniProt P04626)", "assay": "flow cytometry, ZR751 cells, [Ab] 2.5 ug/ml"}, "[3]": {"molecular_target": "human HER2 (ErbB2) expressed on the surface of cell lines and primary cells (human) (UniProt P04626)", "assay": "flow cytometry, ZR751 cells, [Ab] 1.25 ug/ml"}, "[4]": {"molecular_target": "human HER2 (ErbB2) expressed on the surface of cell lines and primary cells (human) (UniProt P04626)", "assay": "flow cytometry, ZR751 cells, [Ab] 20 ug/ml"}, "[5]": {"molecular_target": "human HER2 (ErbB2) expressed on the surface of cell lines and primary cells (human) (UniProt P04626)", "assay": "flow cytometry, MDAMB361 cells, [Ab] 20 ug/ml"}, "[6]": {"molecular_target": "human HER2 (ErbB2) expressed on the surface of cell lines and primary cells (human) (UniProt P04626)", "assay": "flow cytometry, ZR751 cells, [Ab] 10 ug/ml"}, "[7]": {"molecular_target": "human HER2 (ErbB2) expressed on the surface of cell lines and primary cells (human) (UniProt P04626)", "assay": "flow cytometry, ZR751 cells, [Ab] 5 ug/ml"}, "[8]": {"molecular_target": "human HER2 (ErbB2) expressed on the surface of cell lines and primary cells (human) (UniProt P04626)", "assay": "flow cytometry, JIMT1 cells, [Ab] 1.25 ug/ml"}, "[9]": {"molecular_target": "human HER2 (ErbB2) expressed on the surface of cell lines and primary cells (human) (UniProt P04626)", "assay": "flow cytometry, MDAMB361 cells, [Ab] 40 ug/ml"}, "[10]": {"molecular_target": "human HER2 (ErbB2) expressed on the surface of cell lines and primary cells (human) (UniProt P04626)", "assay": "flow cytometry, JIMT1 cells, [Ab] 20 ug/ml"}, "[11]": {"molecular_target": "human HER2 (ErbB2) expressed on the surface of cell lines and primary cells (human) (UniProt P04626)", "assay": "flow cytometry, ZR751 cells, [Ab] 0.63 ug/ml"}, "[12]": {"molecular_target": "human HER2 (ErbB2) expressed on the surface of cell lines and primary cells (human) (UniProt P04626)", "assay": "flow cytometry, MDAMB361 cells, [Ab] 1.25 ug/ml"}, "[13]": {"molecular_target": "human HER2 (ErbB2) expressed on the surface of cell lines and primary cells (human) (UniProt P04626)", "assay": "flow cytometry, MDAMB361 cells, [Ab] 10 ug/ml"}, "[14]": {"molecular_target": "human HER2 (ErbB2) expressed on the surface of cell lines and primary cells (human) (UniProt P04626)", "assay": "flow cytometry, ZR751 cells, [Ab] 40 ug/ml"}, "[15]": {"molecular_target": "human HER2 (ErbB2) expressed on the surface of cell lines and primary cells (human) (UniProt P04626)", "assay": "flow cytometry, ZR751 cells, [Ab] 0.31 ug/ml"}, "[16]": {"molecular_target": "human HER2 (ErbB2) expressed on the surface of cell lines and primary cells (human) (UniProt P04626)", "assay": "flow cytometry, MDAMB361 cells, [Ab] 5 ug/ml"}, "[17]": {"molecular_target": "human HER2 (ErbB2) expressed on the surface of cell lines and primary cells (human) (UniProt P04626)", "assay": "flow cytometry, JIMT1 cells, [Ab] 5 ug/ml"}}}
{"substance": "IC1 (isotype control antibody)", "values": [{"measurement": "MFI A.U.", "setting": "[1]", "result": 240, "unit": "A.U."}, {"measurement": "MFI A.U.", "setting": "[2]", "result": 484, "unit": "A.U."}, {"measurement": "MFI A.U.", "setting": "[3]", "result": 312, "unit": "A.U."}, {"measurement": "MFI A.U.", "setting": "[4]", "result": 2540, "unit": "A.U."}, {"measurement": "MFI A.U.", "setting": "[5]", "result": 617, "unit": "A.U."}, {"measurement": "MFI A.U.", "setting": "[6]", "result": 1080, "unit": "A.U."}, {"measurement": "MFI A.U.", "setting": "[7]", "result": 696, "unit": "A.U."}, {"measurement": "MFI A.U.", "setting": "[8]", "result": 183, "unit": "A.U."}, {"measurement": "MFI A.U.", "setting": "[9]", "result": 558, "unit": "A.U."}, {"measurement": "MFI A.U.", "setting": "[10]", "result": 516, "unit": "A.U."}, {"measurement": "MFI A.U.", "setting": "[11]", "result": 271, "unit": "A.U."}, {"measurement": "MFI A.U.", "setting": "[12]", "result": 202, "unit": "A.U."}, {"measurement": "MFI A.U.", "setting": "[13]", "result": 605, "unit": "A.U."}, {"measurement": "MFI A.U.", "setting": "[14]", "result": 3320, "unit": "A.U."}, {"measurement": "MFI A.U.", "setting": "[15]", "result": 199, "unit": "A.U."}, {"measurement": "MFI A.U.", "setting": "[16]", "result": 253, "unit": "A.U."}, {"measurement": "MFI A.U.", "setting": "[17]", "result": 190, "unit": "A.U."}]}
